From ChEMBL document CHEMBL3856203, “β-Lactamases: Why and How” (J Med Chem, 2016)

Substrate: CC(C)(O/N=C(\C(=O)N[C@@H]1C(=O)N2C(C(=O)[O-])=C(C[n+]3ccccc3)CS[C@H]12)c1csc(N)n1)C(=O)O
Test: Substrate activity at Enterobacter cloacae beta lactamase P99 expressed in Escherichia coli AS226-51 cells by UV spectrophotometric method

B1: Beta-lactamase (Enterobacter cloacae), P05364 (protein)
chain: MMRKSLCCALLLGISCSALATPVSEKQLAEVVANTITPLMKAQSVPGMAVAVIYQGKPHYYTFGKADIAANKPVTPQTLFELGSISKTFTGVLGGDAIARGEISLDDAVTRYWPQLTGKQWQGIRMLDLATYTAGGLPLQVPDEVTDNASLLRFYQNWQPQWKPGTTRLYANASIGLFGALAVKPSGMPYEQAMTTRVLKPLKLDHTWINVPKAEEAHYAWGYRDGKAVRVSPGMLDAQAYGVKTNVQDMANWVMANMAPENVADASLKQGIALAQSRYWRIGSMYQGLGWEMLNWPVEANTVVEGSDSKVALAPLPVAEVNPPAPPVKASWVHKTGSTGGFGSYVAFIPEKQIGIVMLANTSYPNPARVEAAYHILEALQ
For B1, the kcat was 7 ×10⁻³ /s.
